Several values for one entry are separate records, joined by “and”; a condition that tells them apart may be missing. Equal values may be shown once.
Columns and labels:
[1] = Isoelectric point by isoelectric focussing; type: physicochemical, Lactobacillus brevis; conditions: pH
Description: The isoelectric point (IP) is determined by isoelectric focussing (IEF) to be at pH 4.28. This is noteworthy particularly in comparison with the mutant 2 (see example 4). With the mutant 2, the IP is determined at 4.65 despite the fact that, in each of the two mutants, the same type of aminoacid (lysine) was exchanged; in mutant 1, it was the lysine-45 (to isoleucine) and in mutant 2, it was the lysine-48 (to methionine).

[2] = Batchwise reduction of acetophenone with coenzyme regeneration, enantioselectivity by gas chromatography; type: biochemical, Lactobacillus brevis
Description: In this case, 960 μl triethanolamine buffer, 50 mM, pH 7.0 with 11 mM acetophenon, 10 μl magnesium chloride (100 mM start solution); 25 μl NADP^+ (10 mM start solution), 9.4μl isopropanol, and 1 U alcohol dehydrogenase were used.

[3] = Kinetic data for the reduced coenzyme NADH (reduction of acetophenone); type: biochemical, Lactobacillus brevis
Description: (§1) In this N-terminal sequence certain basicity-relevant amino acids were exchanged by established genetic engineering devices and the changes in the acceptance of NAD^+ were determined basically with two values, the KM value and the kcat value. The KM value (Michaelis-Menten-constant [Mol/L]) can be considered to be a measure for the affinity of the co-enzyme to the enzyme. Preferably, the KM value is as small as possible. The kcat value (Mol formed product/mol enzyme×sec) is a measure for the conversion, it should be as high as possible. A combined value, which takes both values into consideration is the quotient kcat/KM. This should be preferably≧20 for obtaining an enzyme suitable for preparative purposes.
(§2) The successive changes of the mutated enzymes were proven by the determination of the kinetic parameters for the co-enzyme NAD^+, NAPD^+, NADH and NADPH by means of the corresponding kinetic parameters for the ketone substrate (acetophenone) or, respectively, by the oxidation reaction for the alcohol (phenylethanol). Furthermore, maintenance of the enantioselectivety was examined using the example of reduction of acetophenon. In addition, temperature-optima and stability, pH optima and stability and the iso-electric point were determined and compared with the corresponding data for the non-mutated wild-type enzyme.

[4] = Temperature stability (residual activity after incubation at various temperatures); type: physicochemical, Lactobacillus brevis
[5] = Kinetic data for the reduced coenzyme NADPH (reduction of acetophenone); type: biochemical, Lactobacillus brevis
Description: as §1, §2

[6] = Kinetic data for the oxidized coenzyme NADP+ (oxidation of phenylethanol); type: biochemical, Lactobacillus brevis
Description: as §1, §2

[7] = Kinetic data for the oxidized coenzyme NAD+ (oxidation of phenylethanol); type: biochemical, Lactobacillus brevis; conditions: for Kcat value / Km: coenzyme NAD+
Description: as §1, §2

[8] = Temperature optimum of enzyme activity; type: biochemical, Lactobacillus brevis
Description: The optimal temperature was determined for reductive reactions at pH 7.0 with the two coenzymes NADH and NADPH to be 55° C. in both cases. The temperature stability was determined as residual activity after 25 h incubation at various temperatures. At 37° C., still 95% reactivity was obtained; at 42° C. still 34%.

[9] = pH stability (residual activity after incubation at various pH values); type: physicochemical, Lactobacillus brevis
Description: The pH stability is expressed as residual activity after a 25 hour incubation period at various pH values, the same buffers were used as for the determination of the pH optima. 45 μl of the respective buffer were mixed with 5 μl of the enzyme solution and incubated at room temperature. Samples were taken after 30 min, 60 min., 6 hours and 25 hours.

[10] = pH optimum of enzyme activity; type: biochemical, Lactobacillus brevis; conditions: for activity at pH 8.0 compared with optimum: oxidative direction
Description: For determining the optimal pH value, the following buffers were used: pH 4.5=Na-acetate; pH 5.0 and 5.5=Na-acetate; pH 6.0 and 6.5=Kpi or MES; pH 7.0 and 7.5=Kpi or TEA; pH 8.0 and 8.6=Tris; pH 9.0=Bicine. All buffers were used in a concentration of 100 mM. For the determination of the reductive reaction 10 mM acetophenon was added. The concentrations of NADP/NAD were each 2 mM. The concentration of NADH/NADPH was each 0.25 mM. For measurement, 970 μl of the respective buffer solution, which already included substrate at the desired concentration, was mixed with 20 μl of the start solution with the desired co-enzyme. The reaction was started with 10 μl enzyme. the dilution factor depended on the activity, it was chosen in the range of 1 to 3 U/ml.

[11] = Standard enzyme test with crude extract (acetophenone reduction / phenyl ethanol oxidation); type: biochemical, Lactobacillus brevis
Description: In the standard enzyme test for reduction of acetophenone, with NADPH 0.032 U/mg (0.318 U/ml, 9.75 mg protein/ml) and with NADH 0.47 U/mg (4.61 U/ml; 9.75 mg protein/ml) were measured. In the reverse reaction (alcohol-oxidation) with phenyl ethanol, with NAD^+ a specific activity of 1.1 U/mg (10.8 U/ml); 9.75 protein/ml) were measured.

[12] = oxidation of phenyl ethanol with NAD+
[13] = reduction of acetophenone with NADH
[14] = reduction of acetophenone with NADPH

mutant 1/1: L. brevis ADH mutant with exchanges A9G, R38L, K45M (SEQ ID NO 17) (SNRLDGKVGIITGGTLGIGLAIATKFVEEGAKVMITGLHSDVGEMAAKSV; OTHER INFORMATION: mutant 1/1)
isoelectric point [1]: 4.85 | enantioselectivity: isomer of phenylethanol formed [2]: only the (R) isomere of phenyl ethanol | Kcat value [3]: 10.3 s⁻¹ | Km [3]: 188 µM | residual activity ([4]; 25 h incubation at 25° C.): 100% | residual activity ([4]; 25 h incubation at 30° C.): 59% | Kcat value [5]: 166.4 s⁻¹ | Km [5]: 352 µM | Kcat value [6]: 33.3 s⁻¹ | Km [6]: 502 µM | Kcat value [7]: 33.3 s⁻¹ | Km [7]: 500 µM and 502 µM | selectivity (kcat/KM) for NAD+ in comparison with the value for NADP+ ([7]; kcat/KM NAD+ as percent of kcat/KM NADP+): 100%

mutant 2/2: L. brevis ADH mutant with exchanges A9G, R38L, H39L, K48M (SEQ ID NO 19) (SNRLDGKVGIITGGTLGIGLAIATKFVEEGAKVMITGLLSDVGEKAAMSV; OTHER INFORMATION: mutant 2/2)
activity at 60° C. relative to optimum ([8]; NADH, 60° C.): 70% | activity at 50° C. relative to optimum ([8]; NADPH, measured at 50° C.): 95% | residual activity ([9]; 6 h storage at pH 7.0): 100% | residual activity ([9]; 6 h storage at pH 8.5): 58% | isoelectric point [1]: about 4.47 | enantioselectivity: isomer of phenylethanol formed [2]: the (R) isomere of phenylethanol only | Kcat value [3]: 33.6 s⁻¹ | Km [3]: ~70 µM and 70 µM | residual activity ([4]; storage 6 h at 30° C.): 67% | residual activity ([4]; storage 6 h at 37° C.): 7% | Kcat value [5]: 101.1 s⁻¹ | Km [5]: 370 µM | activity at pH 8.0 compared with optimum ([10]; NAD+): 61% | activity at pH 8.0 compared with optimum ([10]; NADP+): 77% | activity at pH 7.0 compared with optimum ([10]; reduction of acetophenone with NADH, pH 7.0): 6% | Kcat value [6]: 30.8 s⁻¹ | Km [6]: 143 µM | Kcat value [7]: 23.2 s⁻¹ | Km [7]: 960 µM and 955 µM

mutant 2/3: L. brevis ADH mutant with exchanges A9G, G37D, R38L, K48M (SEQ ID NO 20)
activity [11, 12]: 10.8 U/ml | specific activity [11, 12]: 1.1 U/mg | activity ([11]; oxidation of phenyl ethanol with NADP+): no activity | activity [11, 13]: 4.61 U/ml | specific activity [11, 13]: 0.47 U/mg | activity [11, 14]: 0.318 U/ml | specific activity [11, 14]: 0.032 U/mg
